Data on 6 molecules can be found in patent publication US20140187615, “THERAPEUTIC POLYNUCLEOTIDES, COMPOSITIONS, AND METHODS” (Regents of the University of Minnesota, published 2014).

For data set [1], the target named is T1, phospholamban (PLN), pentameric (UniProt P61015).
T1 sequence: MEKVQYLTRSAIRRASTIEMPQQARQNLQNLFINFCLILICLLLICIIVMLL
The data set is described as follows: FP. Particulars: ACE Kd 0.5 ± 0.1 nM; also gel shift (FIG. 1C); MOPS, 0.1% C12E8, 1 mM MgCl2, 5 mM CaCl2, pH 7.0.

Data set [2] has as its target T2, phospholamban (PLN), pentameric (UniProt P61015 P61015:1-52).
T2 sequence: T1 sequence
The data set is described as follows: FP; ACE Kd 6.5 ± 0.9 nM; MOPS, 0.1% C12E8, 1 mM MgCl2, 5 mM CaCl2, pH 7.0. Particulars: chain copies: 5 (stated pentameric); label: 5'-FAM.

Data set [3] deals with T2, phospholamban (PLN), pentameric. The data set is described as follows: FP; ACE Kd 80 ± 40 nM; MOPS, 0.1% C12E8, 1 mM MgCl2, 5 mM CaCl2, pH 7.0. As to conditions: chain copies: 5 (stated pentameric); label: 5'-FAM.
For data set [4] the target is unchanged. Briefly: FP; ACE Kd 260 ± 180 nM; MOPS, 0.1% C12E8, 1 mM MgCl2, 5 mM CaCl2, pH 7.0. Particulars: chain copies: 5 (stated pentameric); label: 5'-FAM.
The target is the same in data set [5]. The data set is described as follows: FP; ACE Kd 1.2 ± 0.4 nM; MOPS, 0.1% C12E8, 1 mM MgCl2, 5 mM CaCl2, pH 7.0. Particulars: chain copies: 5 (stated pentameric); label: 5'-FAM.
Data set [6] shares this target. Briefly: FP; ACE Kd 24 ± 5 nM; MOPS, 0.1% C12E8, 1 mM MgCl2, 5 mM CaCl2, pH 7.0. As to conditions: chain copies: 5 (stated pentameric); label: 5'-FAM.

Regarding “NNNNNNNNNNNNNNNNNNNNNNNNNNNNNNNNNNNNNNNNNNNNNNNNNNNNNNNNNNNNNNNNNNNNNNNNNNNNNNNN [ssDNA random 80-mer]”, the Kd in data set [1] came to 3.1 nM.
On to AGCAGCACAGAGGTCAGATG (ssDNA) [ssDNA 20-mer], for which, in data set [2], the Kd was 1.8 nM.
On to AGTGATAGCTATGGT (ssDNA) [ssDNA 15-mer], for which binding in data set [3] was characterised by a dissociation constant (Kd) of 3.1 nM.
In data set [4], ATAGCTTGCA (ssDNA) [ssDNA 10-mer] yielded an equilibrium dissociation constant (Kd) of 35 nM.
Take AGCAGCACAGAGGTCAGATGCAGGTAGGGTCCTATGCGTGCTACCGTGAA (ssDNA) [ssDNA 50-mer]: in data set [5], the Kd stood at 5 nM.
As for ACTGAGCATGGGATAACCGTTCTCAGACTT (ssDNA) [ssDNA 30-mer], in data set [6], the dissociation constant Kd came out at 21 nM.
